Experimental data: patent US20080064052A1, “Crystal of a Receptor-Ligand Complex and methods of use” (priority 2006, published 2008)
Peptide text beside a SMILES is read from it.

T1: mouse EphB4 ectodomain Fc fusion protein (Mus musculus, UniProt P54761)
T1 sequence (P54761 16-539 limits assumed): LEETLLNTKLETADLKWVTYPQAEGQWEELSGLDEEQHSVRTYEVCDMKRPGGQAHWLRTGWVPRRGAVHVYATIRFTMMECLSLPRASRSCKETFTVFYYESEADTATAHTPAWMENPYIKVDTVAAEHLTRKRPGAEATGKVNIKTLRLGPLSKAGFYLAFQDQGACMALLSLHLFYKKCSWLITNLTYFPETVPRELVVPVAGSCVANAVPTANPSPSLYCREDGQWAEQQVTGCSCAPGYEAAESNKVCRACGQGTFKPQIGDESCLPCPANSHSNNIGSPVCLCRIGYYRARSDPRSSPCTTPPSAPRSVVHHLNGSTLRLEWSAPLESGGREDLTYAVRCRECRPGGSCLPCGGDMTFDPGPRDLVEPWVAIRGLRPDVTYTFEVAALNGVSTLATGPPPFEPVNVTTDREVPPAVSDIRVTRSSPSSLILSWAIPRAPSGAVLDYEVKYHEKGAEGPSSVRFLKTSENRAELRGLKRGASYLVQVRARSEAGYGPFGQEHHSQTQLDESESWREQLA

T2: human EphB4 ephrin-binding domain (Homo sapiens, UniProt P54760)
T2 sequence (P54760 17-196): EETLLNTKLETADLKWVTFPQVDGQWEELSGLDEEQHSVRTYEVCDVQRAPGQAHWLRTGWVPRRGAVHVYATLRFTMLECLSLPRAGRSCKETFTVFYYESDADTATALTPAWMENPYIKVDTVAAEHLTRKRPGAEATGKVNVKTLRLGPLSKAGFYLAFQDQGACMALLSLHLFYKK

T3: mouse EphB4 ectodomain Fc fusion protein (mouse EphB4-Fc-His, R&D Systems) (mouse, UniProt P54761 16-539)
T3 construct: extracellular domain; also called murine EphB4; not shown: Fc part of a bought fusion protein; His tag of the bought protein
T3 sequence (looked up): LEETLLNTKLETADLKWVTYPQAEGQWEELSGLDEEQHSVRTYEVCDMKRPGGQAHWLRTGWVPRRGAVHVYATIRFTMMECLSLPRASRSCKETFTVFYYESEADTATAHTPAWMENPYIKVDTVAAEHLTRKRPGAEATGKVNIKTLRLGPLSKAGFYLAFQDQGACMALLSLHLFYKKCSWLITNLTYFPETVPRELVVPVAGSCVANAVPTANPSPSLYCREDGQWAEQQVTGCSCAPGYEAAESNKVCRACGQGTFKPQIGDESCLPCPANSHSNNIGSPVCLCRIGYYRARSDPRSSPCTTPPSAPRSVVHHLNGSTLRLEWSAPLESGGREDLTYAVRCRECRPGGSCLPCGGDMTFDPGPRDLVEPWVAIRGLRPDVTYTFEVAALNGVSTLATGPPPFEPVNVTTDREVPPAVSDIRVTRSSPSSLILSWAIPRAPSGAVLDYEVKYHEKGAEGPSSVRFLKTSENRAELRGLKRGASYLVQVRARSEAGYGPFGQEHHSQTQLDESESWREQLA

T4: human EphB4 ephrin-binding domain, EphB4 (17-196) (human, UniProt P54760 17-196)
T4 sequence: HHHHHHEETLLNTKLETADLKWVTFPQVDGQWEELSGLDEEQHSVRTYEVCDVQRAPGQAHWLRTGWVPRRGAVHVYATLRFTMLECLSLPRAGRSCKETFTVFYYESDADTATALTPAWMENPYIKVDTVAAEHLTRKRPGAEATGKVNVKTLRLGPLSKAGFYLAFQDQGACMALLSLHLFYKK

B1: TNYL-RAW peptide (TNYLFSPNGPIARAW) (peptide)
peptide: TNYLFSPNGPIARAW
notes: Synthetic 15-mer (Biopeptide, Inc.); Peptide positions are printed as P1 to P15; also called antagonistic peptide
B2: Eph-binding domain of human ephrin-B2 (ligand)
chain: IVLEPIYWNSSNSKFLPGQGLVLYPQIGDKLDIICPKVDSKTVGQYEYYKVYMVDKDQADRCTIKKENTPLLNCAKPDQDIKFTIKFQEFSPNLWGLEFQKNKDYYIISTSNGSLEGLDNQEGGVCQTRAMKILMKVG
B3: LFSP-RAW peptide (LFSPNGPIARAW) (peptide)
peptide: LFSPNGPIARAW
notes: TNYL-RAW without Thr-P1, Asn-P2 and Tyr-P3

Legend:
[1] = target: T1, mouse EphB4 ectodomain Fc fusion protein; experiment: ELISA competition: inhibition of mouse ephrin-B2 alkaline phosphatase (AP) binding to immobilized mouse EphB4 ectodomain Fc; conditions: IC50 for inhibition of mouse ephrin-B2 AP binding to immobilized mouse EphB4 ectodomain Fc, ELISA binding assay; murine receptor
[2] = target: T2, human EphB4 ephrin-binding domain; experiment: Isothermal titration calorimetry (ITC) binding to EphB4 (17-196); conditions: 25° C., 50 mM Tris pH 7.8, 150 mM NaCl, 1 mM CaCl2
Method: Peptides were dissolved into the same buffer used for the dialysis of EphB4. […] ITC experiments were performed with a Microcal MCS ITC at 25° C. Following an initial injection of 2 μl, titrations were performed by making 20 13 μl injections of peptide into EphB4 in the sample cell to produce an approximate final 2:1 ratio of injectant to sample in the cell. […] Prior to loading the sample cell, EphB4 was centrifuged at 18,000 g for 5 min at 4° C. to remove aggregates and degassed for 5 minutes at room temperature. […] Dilution data were fit to a line and subtracted from the corresponding titration data.

[3] = target: T3, mouse EphB4 ectodomain Fc fusion …; experiment: competition ELISA: inhibition of mouse ephrin-B2 AP binding to immobilized mouse EphB4 ectodomain Fc
Method: (§1) The ability of peptides to compete the binding of mouse ephrin-B2 alkaline phosphatase to immobilized mouse EphB4-Fc-His (R&D Systems) was measured by ELISA as previously described (Koolpe et al., 2005).

[4] = target: T3, mouse EphB4 ectodomain Fc fusion …; experiment: competition ELISA: inhibition of mouse ephrin-B2 AP binding to immobilized mouse EphB4 ectodomain Fc; text sentence that cites Table 1A; same ELISA
Method: as §1

[5] = target: T4, human EphB4 ephrin-binding domain, …; experiment: ITC at 25 °C, peptide injected into human EphB4 (17-196)
Method: (§2) Isothermal titration calorimetry and ELISA experiments: EphB4and ephrin-B2 were either dialyzed or buffer exchanged into 50 mM Tris-Cl (pH 7.8 at 25° C.), 150 mM NaCl, 1 mM CaCl₂, prior to use in calorimetry experiments. Peptides were dissolved into the same buffer used for the dialysis of EphB4. The concentration of EphB4, ephrin-B2 and the peptides was determined by measuring the A₂₈₀ and using the theoretical-extinction coefficient (Gill and von Hippel, 1989). ITC experiments were performed with a Microcal MCS ITC at 25° C. Following an initial injection of 2 μl, titrations were performed by making 20 13 μl injections of peptide into EphB4 in the sample cell to produce an approximate final 2:1 ratio of injectant to sample in the cell. For most titrations the sample cell contained 15 μM EphB4 and the injection syringe contained a 200 μM solution of the peptide. Titrations with ephrin-B2 contained 13 μM EphB4 in the sample cell and 290 μM ephrin-B2 in the syringe. Prior to loading the sample cell, EphB4 was centrifuged at 18,000 g for 5 min at 4° C. to remove aggregates and degassed for 5 minutes at room temperature. Corrections for heats of dilution for the peptides and ephrin-B2 were determined by performing titrations of peptide or ephrin-B2 solutions into buffer. Dilution data were fit to a line and subtracted from the corresponding titration data. Titration data were analyzed using Origin ITC software (Version 5.0, Microcal Software Inc.) and curves were fit to a single binding site model (Wiseman et al., 1989). […] A lower limit for the binding constant was determined by performing a titration in which the sample cell contained 30 μM EphB4 and the injection syringe contained a 1.45 mM solution of the peptide, producing a final ratio of peptide to EphB4 of 10:1. The data was fit assuming a stoichiometry of 1 and at least 60% saturation of binding at the final peptide concentration (Turnbull and Daranas, 2003).

[6] = target: T4, human EphB4 ephrin-binding domain, …; experiment: ITC at 25 °C, 290 µM ephrin-B2 injected into 13 µM human EphB4 (17-196)
Method: (§3) Experiments were performed at 25° C. in 50 mM Tris pH 7.8, 150 mM NaCl, 1 mM CaCl₂.
as §2, with “10:1.” for “10:1. The data was fit assuming a stoichiometry of 1 and at least 60% saturation of binding at the final peptide concentration (Turnbull and Daranas, 2003).”

[7] = target: T4, human EphB4 ephrin-binding domain, …; experiment: ITC at 25 °C, 1.45 mM peptide injected into 30 µM human EphB4 (17-196)
Method: as §3
as §2, with “For most titrations the sample cell contained 15 μM EphB4 and the injection syringe contained a 200 μM solution of the peptide. Titrations with ephrin-B2 contained 13 μM EphB4 in the sample cell and 290 μM ephrin-B2 in the syringe. Prior to loading the sample cell, EphB4 was centrifuged at 18,000 g for 5 min at 4° C. to remove aggregates and degassed for 5 minutes at room temperature.” left out, “Dilution data were fit to a line and subtracted from the corresponding titration data.” left out, “10:1.” for “10:1. The data was fit assuming a stoichiometry of 1 and at least 60% saturation of binding at the final peptide concentration (Turnbull and Daranas, 2003).”

[8] = target: T4, human EphB4 ephrin-binding domain, …; experiment: ITC at 25 °C
Method: as §3
as §2, with “For most titrations the sample cell contained 15 μM EphB4 and the injection syringe contained a 200 μM solution of the peptide. Titrations with ephrin-B2 contained 13 μM EphB4 in the sample cell and 290 μM ephrin-B2 in the syringe. Prior to loading the sample cell, EphB4 was centrifuged at 18,000 g for 5 min at 4° C. to remove aggregates and degassed for 5 minutes at room temperature.” left out, “Dilution data were fit to a line and subtracted from the corresponding titration data.” left out, “10:1.” for “10:1. The data was fit assuming a stoichiometry of 1 and at least 60% saturation of binding at the final peptide concentration (Turnbull and Daranas, 2003).”

| Molecule | IC50 [3] | Kd [5] | TΔS [5] | ΔG [5] | ΔH [5] | other results |
| --- | --- | --- | --- | --- | --- | --- |
| CC[C@H](C)[C@H](NC(=O)[C@@H]1CCCN1C(=O)CNC(=O)[C@H](CC(N)=O)NC(=O)[C@@H]1CCCN1C(=O)[C@H](CO)NC(=O)[C@H](Cc1ccccc1)NC(=O)[C@@H](N)CC(C)C)C(=O)N[C@@H](C)C(=O)N[C@@H](CCCNC(=N)N)C(=O)N[C@@H](C)C(=O)N[C@@H](Cc1c[nH]c2ccccc12)C(=O)O [LFSP-RAW] (H-LFSPNGPIARAW-OH; N-terminus and C-terminus assumed) |  |  |  |  |  | IC50 [1]: > 10000 nM; TΔS [2]: 2.1 ± 0.4 kcal/mol; ΔG [2]: -7.4 ± 0.1 kcal/mol; ΔH [2]: -5.3 ± 0.5 kcal/mol |
| B1 | 15 nM | 71 nM | -4.9 kcal/mol | -9.8 kcal/mol | -14.7 kcal/mol | IC50 [4]: ~15 nM |
| B2 |  |  |  |  |  | Kd [6]: 40 nM; TΔS [6]: 13.4 kcal/mol; ΔG [6]: -10.2 kcal/mol; ΔH [6]: 3.3 kcal/mol |
| TNYLFSPNGPIA [TNYL peptide (TNYLFSPNGPIA)] | 150000 nM |  |  |  |  | ΔH [7]: -9.6 kcal/mol |
| B3 | ~15000 nM | 3500 nM | 2.1 kcal/mol | -7.4 kcal/mol | -5.3 kcal/mol | fold reduction in affinity (against the peptides that keep Tyr-P3) [8]: 40 fold |
